Assay results: US20090011464A1 (published 2009)

Biological target: T1, human α4β7 integrin (human, UniProt P13612 34-1032; P26010 20-798)
T1 construct: whole, on cells; also called α4β7 integrin on HuT 78 cells; α4β7 on RPMI 8866 cells
Experiment: inhibition of adhesion of α4β7+ RPMI 8866 cells to plate-bound human MAdCAM-1-Ig chimera; antibody varied from 15.0 to 0.00075 µg/ml
Method: Wells were then washed once with wash buffer (50 mM Tris HCl, 0.14 M NaCl, 1 mM MnC12, pH 7.2) using a microplate autowasher (Bio-Tek Instruments, Winooski, Vt.) and blocked for 1.5 hrs at 37° C. with 100 μL of 10% FBS diluted in PBS.
BCECF (2′,7′-bis-(2-carboxyethyl)-5-(and 6)-carboxy fluorescein, acetoxymethyl ester; Molecular Probes, Inc., Eugene, Oreg.) was reconstituted to 50 μg/ml in DMSO and added to the cell suspension to a final dilution of 1:500. After incubating for 30 minutes at 37° C., cells were then washed in assay buffer (HBSS with 2% Fetal Bovine Serum, 25 mM HEPES, penicillin/streptomycin, pH 7.2), and 50,000 cells were added to each well of a V-bottom 96-well plate. […] The plate coated with MAdCAM-1 chimera was washed to remove blocking buffer, and these fluorescently labeled RPMI 8866 cells were then transferred to each well. The plate was placed on a platform shaker (New Brunswick Scientific Co., Inc., Edison, N.J.) at 40 RPM for 30 minutes at room temperature wrapped in aluminum foil. Unbound cells were removed by a single wash step and fluorescence subsequently measured (excite at 485 nm, read at 535 nm) with a Fluorescence Concentrator Analyzer (IDEXX Laboratories, Inc., Westbrook, Me.) before and after washing.

IC50: 1.8 ng/mL
B1: murine Act-1 monoclonal antibody (antibody, mouse IgG1, V domains shown)
VH: QVQLQQPGAELVKPGTSVKLSCKGYGYTFTSYWMHWVKQRPGQGLEWIGEIDPSESNTNYNQKFKGKATLTVDISSSTAYMQLSSLTSEDSAVYYCARGGYDGWDYAIDYWGQGTSVTVSS
VL: DVVVTQTPLSLPVSFGDQVSISCRSSQSLAKSYGNTYLSWYLHKPGQSPQLLIYGISNRFSGVPDRFSGSGSGTDFTLKISTIKPEDLGMYYCLQGTHQPYTFGGGTKLEIK
notes: Mouse IgG1/kappa from the Act-1 hybridoma (ATCC PTA-3663); also called mAb Act-1; mouse Act-1 antibody
